The target of the assay is T1, human CD30 (TNFRSF8), recombinant (human, UniProt P28908).
T1 chain: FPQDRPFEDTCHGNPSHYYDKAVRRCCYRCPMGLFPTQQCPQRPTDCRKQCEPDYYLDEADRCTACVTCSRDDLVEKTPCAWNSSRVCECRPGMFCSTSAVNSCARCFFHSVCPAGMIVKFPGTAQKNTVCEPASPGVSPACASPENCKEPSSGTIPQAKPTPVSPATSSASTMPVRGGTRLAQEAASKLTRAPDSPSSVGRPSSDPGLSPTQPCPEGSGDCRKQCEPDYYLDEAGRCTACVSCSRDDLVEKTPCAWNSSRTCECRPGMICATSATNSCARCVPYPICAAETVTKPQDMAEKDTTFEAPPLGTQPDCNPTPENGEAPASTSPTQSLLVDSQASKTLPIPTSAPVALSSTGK
Briefly: SPR. On the technique in general: In SPR one partner is held on a chip, and binding of the other changes the refractive index at the surface.

Values joined by “and” are separate entries in the source; they are usually repeats but may differ in a detail not shown here. Equal values may be shown once.

B1: HuMab 5F11 (antibody, V domains shown)
VH: QVQLQQWGAGLLKPSETLSLTCAVYGGSFSAYYWSWIRQPPGKGLEWIGDINHGGGTNYNPSLKSRVTISVDTSKNQFSLKLNSVTAADTAVYYCASLTAYWGQGSLVTVSS
VL: DIQMTQSPTSLSASVGDRVTITCRASQGISSWLTWYQQKPEKAPKSLIYAASSLQSGVPSRFSGSGSGTDFTLTISSLQPEDFATYYCQQYDSYPITFGQGTRLEIK
On to B1, for which the Kd (in general, the equilibrium constant for the complex coming apart) was 1.12 nM and 1.14 nM and 1.23 nM and 1.36 nM.
